According to patent US9233155B2, “Method of treating solid cancers using anti-c-Met antibody and sorafenib combination therapy” (Samsung Electronics Co., Ltd., priority 2013, dated 2016):

B1: L3-1Y: anti-c-Met antibody: heavy chain variable region of huAbF46-H4-A1, human IgG2 hinge and IgG2 constant region, kappa light chain (antibody)
heavy: EVQLVESGGGLVQPGGSLRLSCAASGFTFTDYYMSWVRQAPGKGLEWLGFIRNKANGYTTEYSASVKGRFTISRDNSKNTLYLQMNSLRAEDTAVYYCARDNWFAYWGQGTLVTVSSASTKGPSVFPLAPCSRSTSESTAALGCLVKDYFPEPVTVSWNSGALTSGVHTFPAVLQSSGLYSLSSVVTVPSSNFGTQTYTCNVDHKPSNTKVDKTVERKCCVECPPCPAPPVAGPSVFLFPPKPKDTLMISRTPEVTCVVVDVSHEDPEVQFNWYVDGVEVHNAKTKPREEQFNSTFRVVSVLTVVHQDWLNGKEYKCKVSNKGLPAPIEKTISKTKGQPREPQVYTLPPSREEMTKNQVSLTCLVKGFYPSDIAVEWESNGQPENNYKTTPPMLDSDGSFFLYSKLTVDKSRWQQGNVFSCSVMHEALHNHYTQKSLSLSPGK
light: DIQMTQSPSSLSASVGDRVTITCKSSQSLLASGNQNNYLAWYQQKPGKAPKMLIIWASTRVSGVPSRFSGSGSGTDFTLTISSLQPEDFATYYCQQSYSRPYTFGQGTKVEIKRTVAAPSVFIFPPSDEQLKSGTASVVCLLNNFYPREAKVQWKVDNALQSGNSQESVTEQDSKDSTYSLSSTLTLSKADYEKHKVYACEVTHQGLSSPVTKSFNRGEC

Experiments:
[1] = test system: MKN45 gastric cancer cells; assay: Cell growth inhibition in MKN45 gastric cancer cell line (CellTiter Glo); assay type: cell-based
Description: In particular, RPMI1640 medium (GIBCO) containing 10% FBS was added to a 96 well plate. MKN45 gastric cancer cells (JCRB, JCRB0254) were seeded thereon in the amount of 5,000 cells/well, and incubated overnight at 37° C. After 24 hours (the next day), the incubated cells were treated with (a) L3-1Y (Reference Example 1) alone or (b) L3-1Y and sorafenib. For the single treatment of L3-1Y alone, the concentration of L3-1Y was 0 μg/mL, 0.016 μg/mL, 0.08 μg/mL, 0.4 μg/mL, or 2 μg/mL. For the co-administration of L3-1Y and sorafenib, the concentration of sorafenib was fixed at 4 μM, which is a concentration of IC30 in MKN45 cell line, and the concentration of L3-1Y was 0 μg/mL, 0.016 μg/mL, 0.08 μg/mL, 0.4 μg/mL, or 2 μg/mL.
(§1) At 72 hours after the single treatment or the co-treatment, 100 μL of CellTiter Glo solution (Promega, G7572) was added to each well, and left for 30 minutes at room temperature. The cell number was counted by emission signal, and the emission signal was recorded using Envision 2104 Multi-label Reader (Perkin Elmer).

[2] = test system: EBC1 lung cancer cells; assay: Cell growth inhibition in EBC1 lung cancer cell line (CellTiter Glo); assay type: cell-based; conditions: L3-1Y 0-2 μg/mL alone, sorafenib 4 μM alone, or both; 72 hours
Description: (§2) In particular, RPMI1640 medium (GIBCO) containing 10% FBS added to a 96 well plate. EBC1 lung cancer cells (JCRB, JCRB0820) were seeded thereon in the amount of 5,000 cells/well, and incubated overnight at 37° C. After 24 hours (the next day), the incubated cells were treated with (a) L3-1Y (Reference Example 1) alone or (b) L3-1Y and sorafenib. For the single treatment of L3-1Y alone, the concentration of L3-1Y was 0 μg/mL, 0.016 μg/mL, 0.08 μg/mL, 0.4 μg/mL, or 2 μg/mL. For the co-treatment of L3-1Y and sorafenib, the concentration of sorafenib was fixed at 4 μM, and the concentration of L3-1Y was 0 μg/mL, 0.016 μg/mL, 0.08 μg/mL, 0.4 μg/mL, or 2 μg/m L.
as §1

[3] = test system: MKN45 gastric cancer cells; assay: Tumor xenograft model of gastric cancer cell line MKN45; assay type: in vivo, BALB/c nude mice; conditions: sorafenib 3.3 mg/kg P.O. once a day, L3-1Y 1 mg/kg I.V. once a week, day 21
Description: (§3) To verify the in vivo effect of the co-administration on tumor growth, a tumor xenograft model using male 5-6 week-old BALB/c nude mice (Pharmalegacy, China) was prepared. The mice were adapted at least one week before inoculation of tumor cells.
(§4) Then, the mice were anesthetized with 1-2% isofurane, and MKN45 gastric cancer cells (JCRB, JCRB0254) were subcutaneously injected into the right flank of the mice in the amount of 5×10^6 cells per mouse. 7 days after, when the average size of the tumor reaches 50 mm^3 or more, the mice were grouped as follows: a group treated with sorafenib (3.3 mg/kg, P.O., once a day), a group treated with L3-1Y (1 mg/kg, I.V., once a week), a group co-treated with L3-1Y (1 mg/kg, I.V., once a week) and sorafenib (3.3 mg/kg, P.O., once a day), and a group (control) treated with vehicle (PBS 0.2 ml, I.V., once a week). Each group consisted of 10 mice.
(§5) The experiment was performed for 4 weeks in total, and tumor size and body weight of the mice were measured twice a week. The tumor volume (V) was calculated by the following formula: V (mm^3)={length of long axis (mm)×(length of short axis (mm))^2}/2.

[4] = test system: HT29 colon cancer cells; assay: Tumor xenograft model of colon cancer cell line HT29; assay type: in vivo, BALB/c nude mice; conditions: for Tumor Inhibition Rate at 21st day (%; compared to vehicle-treated group (0%)): sorafenib 3.3 mg/kg P.O. once a day, L3-1Y 1 mg/kg I.V. once a week, day 21
Description: as §3
as §4, with “and HT29 colon” for “and MKN45 gastric”, “cells I(ATCC, HTB-38)” for “cells (JCRB, JCRB0254)”, “mice at” for “mice in”, “week).” for “week). Each group consisted of 10 mice.”
as §5

[5] = test system: HT29 colon cancer cells; assay: Cell growth inhibition in HT29 colon cancer cell line (CellTiter Glo); assay type: cell-based; conditions: L3-1Y 0-2 μg/mL alone or with sorafenib fixed at 4 μM, 72 hours
Description: as §2, with “FBS was” for “FBS”, “HT29 colon” for “EBC1 lung”, “(ATCC, HTB-38)” for “(JCRB, JCRB0820)”, “μg/mL.” for “μg/m L.”
as §1

[6] = test system: HCC1806 breast cancer cell line; assay: Cell growth inhibition in HCC1806 breast cancer cell line (CellTiter Glo); assay type: cell-based; conditions: L3-1Y 0-2 μg/mL alone or with sorafenib fixed at 3 μM, 72 hours

Molecule | inhibition at 4 µM ([1]; Homo sapiens, MKN-45, single treatment of sorafenib 4 μM (0 μg/mL of L3-1Y), 72 hours, read-out: cell growth inhibition rate) [%] | concentration of IC30 in MKN45 cell line ([1]; MKN45 cell line) [µM] | cell growth inhibiting effect [2] | Tumor Inhibition Rate at 21st day (%; compared to vehicle-treated group (0%)) [3] [%] | Tumor Inhibition Rate at 21st day (%; compared to vehicle-treated group (0%)) [4] [%] | cell growth inhibiting effect ([1]; L3-1Y 0-2 μg/mL alone or with sorafenib fixed at 4 μM, 72 hours) | cell growth inhibiting effect ([1]; L3-1Y 0.08 μg/mL, alone or with 4 μM sorafenib, 72 hours) | cell growth inhibiting effect [5] | cell death / cell growth inhibiting effect [6] | tumor inhibiting effect ([4]; same doses as Table 4)
CNC(=O)c1cc(Oc2ccc(NC(=O)Nc3ccc(Cl)c(C(F)(F)F)c3)cc2)ccn1 [Sorafenib, 4-[4-[[4-chloro-3-(trifluoromethyl)phenyl]carbamoylamino]phenoxy]-N-methyl-pyridine-2-carboxamide] | 30 | 4 | no cell growth inhibiting effect | 24.7 | 22.1 |  |  |  |  | 
B1 |  |  | observed | 36.2 | −0.9 | observed | only a little effect | not observed | not observed | no tumor inhibiting effect
